Measured values published in article PMC546145.
Like-named read-outs stand apart in the source and are kept apart here.

How the values were obtained:
Assay in all cases: competition EMSA
[1] = target: T1, Ku heterodimer, Ku70 subunit;Ku heterodimer, Ku80 subunit (human;human, UniProt P12956;P13010 1-609;1-732, |)
[2] = target: T1, Ku heterodimer, Ku70 subunit;Ku …; remark: listed apart in the source
[3] = target: T1, Ku heterodimer, Ku70 subunit;Ku …; remark: listed apart in the source

T1 sequence (P12956 whole entry, chain 1 of 2): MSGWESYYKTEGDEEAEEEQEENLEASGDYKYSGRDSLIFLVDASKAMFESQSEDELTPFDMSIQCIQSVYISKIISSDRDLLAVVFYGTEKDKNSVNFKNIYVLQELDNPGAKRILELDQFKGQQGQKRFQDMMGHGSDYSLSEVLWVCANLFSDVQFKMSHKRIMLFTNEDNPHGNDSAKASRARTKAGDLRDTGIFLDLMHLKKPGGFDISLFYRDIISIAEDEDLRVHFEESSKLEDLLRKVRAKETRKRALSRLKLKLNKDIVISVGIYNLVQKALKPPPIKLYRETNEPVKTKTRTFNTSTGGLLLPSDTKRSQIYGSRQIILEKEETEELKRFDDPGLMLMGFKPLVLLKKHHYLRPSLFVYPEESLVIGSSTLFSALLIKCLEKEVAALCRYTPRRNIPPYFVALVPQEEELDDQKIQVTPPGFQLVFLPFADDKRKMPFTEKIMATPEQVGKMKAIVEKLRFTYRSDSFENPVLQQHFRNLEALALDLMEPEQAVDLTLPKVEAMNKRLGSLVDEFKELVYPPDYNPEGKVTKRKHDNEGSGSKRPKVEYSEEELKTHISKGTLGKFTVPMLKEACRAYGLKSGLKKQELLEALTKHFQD
T1 sequence (P13010 whole entry, chain 2 of 2): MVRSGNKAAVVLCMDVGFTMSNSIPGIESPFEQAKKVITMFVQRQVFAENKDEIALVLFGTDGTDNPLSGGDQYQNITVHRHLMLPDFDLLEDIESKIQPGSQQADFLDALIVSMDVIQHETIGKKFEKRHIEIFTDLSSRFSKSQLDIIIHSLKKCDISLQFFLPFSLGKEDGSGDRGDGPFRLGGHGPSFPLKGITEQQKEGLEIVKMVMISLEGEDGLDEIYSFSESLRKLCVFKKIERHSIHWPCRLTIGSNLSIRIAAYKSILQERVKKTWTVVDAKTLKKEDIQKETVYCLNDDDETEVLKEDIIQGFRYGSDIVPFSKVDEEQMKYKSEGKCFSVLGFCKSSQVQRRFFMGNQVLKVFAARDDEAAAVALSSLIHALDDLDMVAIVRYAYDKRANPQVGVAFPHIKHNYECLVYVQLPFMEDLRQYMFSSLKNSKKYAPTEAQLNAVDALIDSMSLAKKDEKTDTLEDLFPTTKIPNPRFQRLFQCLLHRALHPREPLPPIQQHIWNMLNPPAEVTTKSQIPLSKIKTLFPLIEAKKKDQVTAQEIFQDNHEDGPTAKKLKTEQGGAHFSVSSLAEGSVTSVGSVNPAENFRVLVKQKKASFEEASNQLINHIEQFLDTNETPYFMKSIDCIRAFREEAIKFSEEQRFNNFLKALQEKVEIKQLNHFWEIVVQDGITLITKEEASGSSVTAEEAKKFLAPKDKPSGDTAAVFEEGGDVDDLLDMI

B1: 5P/5B undamaged (dsDNA)
DNA 1: CCCCTGGCTTTCTTTTCCTCTTCCTTCCCC
DNA 2: GGGGAAGGAAGAGGAAAAGAAAGCCAGGGG
modifications: 5' biotin on strand 2
- binding result [1]: binds

B2: MP/3B + Pt (dsDNA)
DNA 1: CCCCTCTCCTTCTTGGCTTCTTCCTTCCCC
DNA 2: GGGGAAGGAAGAAGCCAAGAAGGAGAGGGG
modifications: cisplatin adduct at central GG of strand 1 (15-16); 3' biotin on strand 2
- binding result [2]: binds

B3: MP/5B + Pt (dsDNA)
DNA 1: B2 DNA 1
DNA 2: B2 DNA 2
modifications: cisplatin adduct at central GG of strand 1 (15-16); 5' biotin on strand 2
- binding result [3]: binds
